B1: BSPSMA/CD3-300 (bispecific antibody)
chain 1: QVQLVESGGGVVQPGRSLRLSCAASGFTFSSYGMHWVRQAPGKGLEWVAVISYAGNNKYYADSVKGRFTVSRDNSKKTLYLQMNSLRSEDTAVYYCAKDSYYDFLTDPDVLDIWGQGTMVTVSS
chain 2: EVQLVESGGGLVQPGRSLRLSCAASGFTFDDYSMHWVRQAPGKGLEWVSGISWNSGSIGYADSVKGRFTISRDNAKNSLYLQMNSLRAEDTALYYCAKDGSGYGYFYYYGMDVWGQGTTVTVSS
chain 3: DIQMTQSPSSLSASVGDSVTITCRASQSINNYLNWYQQKPGKAPKLLIYTASSLLSGVPSRFSGSGSGTDFTLTISGLHPEDFATYFCQQSFSTPPITFGQGTRLDIK
B2: BSPSMA/CD3-200 (bispecific antibody)
chain 1: QVQLVESGGGVVQPGRSLRLSCAASGFTFSSYGMHWVRQAPGKGLEWVAVISYAGNNKYYADSVKGRFTVSRDNSKKTLYLQMNSLRSEDTAVYYCAKDSYYDFLTDPDVLDIWGQGTMVTVSS
chain 2: EVQLVESGGGLVQPGRSLRLSCAASGFTFDDYAMHWVRQAPGKGLEWVSGISWNSGSIGYADSVKGRFTISRDNAKNSLYLQMNSLRAEDTALYYCAKDGSGYGYFYYYGMDVWGQGTTVTVSS
chain 3: DIQMTQSPSSLSASVGDSVTITCRASQSINNYLNWYQQKPGKAPKLLIYTASSLLSGVPSRFSGSGSGTDFTLTISGLHPEDFATYFCQQSFSTPPITFGQGTRLDIK
B3: BSPSMA/CD3-800 (bispecific antibody)
chain 1: QVQLVESGGGVVQPGRSLRLSCAASGFTFSSYGMHWVRQAPGKGLEWVAVISYAGNNKYYADSVKGRFTVSRDNSKKTLYLQMNSLRSEDTAVYYCAKDSYYDFLTDPDVLDIWGQGTMVTVSS
chain 2: EVQLVESGGGLVQPGRSLRLSCAASGFTFDDYSMHWVRQAPGKGLEWVSGISWNSGSIGYADSVKGRFTISRDNAKNSLYLQMNSLRAEDTALYYCAKYGSGYGKFYHYGLDVWGQGTTVTVSS
chain 3: DIQMTQSPSSLSASVGDSVTITCRASQSINNYLNWYQQKPGKAPKLLIYTASSLLSGVPSRFSGSGSGTDFTLTISGLHPEDFATYFCQQSFSTPPITFGQGTRLDIK
B4: BSPSMA/CD3-1000 (bispecific antibody)
chain 1: QVQLVESGGGVVQPGRSLRLSCAASGFTFSSYGMHWVRQAPGKGLEWVAVISYAGNNKYYADSVKGRFTVSRDNSKKTLYLQMNSLRSEDTAVYYCAKDSYYDFLTDPDVLDIWGQGTMVTVSS
chain 2: EVQLVESGGGLVQPGRSLRLSCAASGFTFDDYSMHWVRQAPGKGLEWVSGISWNSGSKGYADSVKGRFTISRDNAKNSLYLQMNSLRAEDTALYYCAKYGSGYGKFYYYGLDVWGQGTTVTVSS
chain 3: DIQMTQSPSSLSASVGDSVTITCRASQSINNYLNWYQQKPGKAPKLLIYTASSLLSGVPSRFSGSGSGTDFTLTISGLHPEDFATYFCQQSFSTPPITFGQGTRLDIK
B5: BSPSMA/CD3-1100 (bispecific antibody)
chain 1: QVQLVESGGGVVQPGRSLRLSCAASGFTFSSYGMHWVRQAPGKGLEWVAVISYAGNNKYYADSVKGRFTVSRDNSKKTLYLQMNSLRSEDTAVYYCAKDSYYDFLTDPDVLDIWGQGTMVTVSS
chain 2: EVQLVESGGGLVQPGRSLRLSCAASGFTFDDYSMHWVRQAPGKGLEWVSGISWNSGSKGYADSVKGRFTISRDNAKNSLYLQMNSLRAEDTALYYCAKYGSGYGKFYHYGMDVWGQGTTVTVSS
chain 3: DIQMTQSPSSLSASVGDSVTITCRASQSINNYLNWYQQKPGKAPKLLIYTASSLLSGVPSRFSGSGSGTDFTLTISGLHPEDFATYFCQQSFSTPPITFGQGTRLDIK
B6: BSPSMA/CD3-2100 (bispecific antibody)
chain 1: QVQLVESGGGVVQPGRSLRLSCAASGFTFSSYGMHWVRQAPGKGLEWVAVISYAGNNKYYADSVKGRFTVSRDNSKKTLYLQMNSLRSEDTAVYYCAKDSYYDFLTDPDVLDIWGQGTMVTVSS
chain 2: EVQLVESGGGLVQPGRSLRLSCAASGFTFDDYSMHWVRQAPGKGLEWVSGISWNSGSKGYADSVKGRFTISRDNAKNSLYLQMNSLRAEDTALYYCAKDGSGYGKFYYYGMDVWGQGTTVTVSS
chain 3: DIQMTQSPSSLSASVGDSVTITCRASQSINNYLNWYQQKPGKAPKLLIYTASSLLSGVPSRFSGSGSGTDFTLTISGLHPEDFATYFCQQSFSTPPITFGQGTRLDIK
B7: BSPSMA/CD3-1400 (bispecific antibody)
chain 1: QVQLVESGGGVVQPGRSLRLSCAASGFTFSSYGMHWVRQAPGKGLEWVAVISYAGNNKYYADSVKGRFTVSRDNSKKTLYLQMNSLRSEDTAVYYCAKDSYYDFLTDPDVLDIWGQGTMVTVSS
chain 2: EVQLVESGGGLVQPGRSLRLSCAASGFTFDDYSMHWVRQAPGKGLEWVSGISWNSGSIGYADSVKGRFTISRDNAKNSLYLQMNSLRAEDTALYYCAKYGSGYGKFYHYGMDVWGQGTTVTVSS
chain 3: DIQMTQSPSSLSASVGDSVTITCRASQSINNYLNWYQQKPGKAPKLLIYTASSLLSGVPSRFSGSGSGTDFTLTISGLHPEDFATYFCQQSFSTPPITFGQGTRLDIK
B8: BSPSMA/CD3-1900 (bispecific antibody)
chain 1: QVQLVESGGGVVQPGRSLRLSCAASGFTFSSYGMHWVRQAPGKGLEWVAVISYAGNNKYYADSVKGRFTVSRDNSKKTLYLQMNSLRSEDTAVYYCAKDSYYDFLTDPDVLDIWGQGTMVTVSS
chain 2: EVQLVESGGGLVQPGRSLRLSCAASGFTFDDYSMHWVRQAPGKGLEWVSGISWNSGSIGYADSVKGRFTISRDNAKNSLYLQMNSLRAEDTALYYCAKDGSGYGKFYHYGMDVWGQGTTVTVSS
chain 3: DIQMTQSPSSLSASVGDSVTITCRASQSINNYLNWYQQKPGKAPKLLIYTASSLLSGVPSRFSGSGSGTDFTLTISGLHPEDFATYFCQQSFSTPPITFGQGTRLDIK
B9: BSPSMA/CD3-1600 (bispecific antibody)
chain 1: QVQLVESGGGVVQPGRSLRLSCAASGFTFSSYGMHWVRQAPGKGLEWVAVISYAGNNKYYADSVKGRFTVSRDNSKKTLYLQMNSLRSEDTAVYYCAKDSYYDFLTDPDVLDIWGQGTMVTVSS
chain 2: EVQLVESGGGLVQPGRSLRLSCAASGFTFDDYSMHWVRQAPGKGLEWVSGISWNSGSKGYADSVKGRFTISRDNAKNSLYLQMNSLRAEDTALYYCAKDGSGYGKFYHYGMDVWGQGTTVTVSS
chain 3: DIQMTQSPSSLSASVGDSVTITCRASQSINNYLNWYQQKPGKAPKLLIYTASSLLSGVPSRFSGSGSGTDFTLTISGLHPEDFATYFCQQSFSTPPITFGQGTRLDIK
B10: BSPSMA/CD3-1500 (bispecific antibody)
chain 1: QVQLVESGGGVVQPGRSLRLSCAASGFTFSSYGMHWVRQAPGKGLEWVAVISYAGNNKYYADSVKGRFTVSRDNSKKTLYLQMNSLRSEDTAVYYCAKDSYYDFLTDPDVLDIWGQGTMVTVSS
chain 2: EVQLVESGGGLVQPGRSLRLSCAASGFTFDDYSMHWVRQAPGKGLEWVSGISWNSGSKGYADSVKGRFTISRDNAKNSLYLQMNSLRAEDTALYYCAKDGSGYGKFYYYGLDVWGQGTTVTVSS
chain 3: DIQMTQSPSSLSASVGDSVTITCRASQSINNYLNWYQQKPGKAPKLLIYTASSLLSGVPSRFSGSGSGTDFTLTISGLHPEDFATYFCQQSFSTPPITFGQGTRLDIK
B11: BSPSMA/CD3-1700 (bispecific antibody)
chain 1: QVQLVESGGGVVQPGRSLRLSCAASGFTFSSYGMHWVRQAPGKGLEWVAVISYAGNNKYYADSVKGRFTVSRDNSKKTLYLQMNSLRSEDTAVYYCAKDSYYDFLTDPDVLDIWGQGTMVTVSS
chain 2: EVQLVESGGGLVQPGRSLRLSCAASGFTFDDYSMHWVRQAPGKGLEWVSGISWNSGSKGYADSVKGRFTISRDNAKNSLYLQMNSLRAEDTALYYCAKYGSGYGKFYYYGMDVWGQGTTVTVSS
chain 3: DIQMTQSPSSLSASVGDSVTITCRASQSINNYLNWYQQKPGKAPKLLIYTASSLLSGVPSRFSGSGSGTDFTLTISGLHPEDFATYFCQQSFSTPPITFGQGTRLDIK
B12: BSPSMA/CD3-005 (bispecific antibody)
chain 1: QVQLVESGGGVVQPGRSLRLSCAASGFTFSSYGMHWVRQAPGKGLEWVAVISYAGNNKYYADSVKGRFTVSRDNSKKTLYLQMNSLRSEDTAVYYCAKDSYYDFLTDPDVLDIWGQGTMVTVSS
chain 2: EVQLVESGGGLVQPGRSLRLSCAASGFTFDDYSMHWVRQAPGKGLEWVSGISWNSGSIGYADSVKGRFTISRDNAKNSLYLQMNSLRAEDTALYYCAKYGSGYGKFYYYGMDVWGQGTTVTVSS
chain 3: DIQMTQSPSSLSASVGDSVTITCRASQSINNYLNWYQQKPGKAPKLLIYTASSLLSGVPSRFSGSGSGTDFTLTISGLHPEDFATYFCQQSFSTPPITFGQGTRLDIK
B13: BSPSMA/CD3-1300 (bispecific antibody)
chain 1: QVQLVESGGGVVQPGRSLRLSCAASGFTFSSYGMHWVRQAPGKGLEWVAVISYAGNNKYYADSVKGRFTVSRDNSKKTLYLQMNSLRSEDTAVYYCAKDSYYDFLTDPDVLDIWGQGTMVTVSS
chain 2: EVQLVESGGGLVQPGRSLRLSCAASGFTFDDYSMHWVRQAPGKGLEWVSGISWNSGSIGYADSVKGRFTISRDNAKNSLYLQMNSLRAEDTALYYCAKYGSGYGKFYYYGLDVWGQGTTVTVSS
chain 3: DIQMTQSPSSLSASVGDSVTITCRASQSINNYLNWYQQKPGKAPKLLIYTASSLLSGVPSRFSGSGSGTDFTLTISGLHPEDFATYFCQQSFSTPPITFGQGTRLDIK
B14: BSPSMA/CD3-1200 (bispecific antibody)
chain 1: QVQLVESGGGVVQPGRSLRLSCAASGFTFSSYGMHWVRQAPGKGLEWVAVISYAGNNKYYADSVKGRFTVSRDNSKKTLYLQMNSLRSEDTAVYYCAKDSYYDFLTDPDVLDIWGQGTMVTVSS
chain 2: EVQLVESGGGLVQPGRSLRLSCAASGFTFDDYSMHWVRQAPGKGLEWVSGISWNSGSIGYADSVKGRFTISRDNAKNSLYLQMNSLRAEDTALYYCAKDGSGYGKFYHYGLDVWGQGTTVTVSS
chain 3: DIQMTQSPSSLSASVGDSVTITCRASQSINNYLNWYQQKPGKAPKLLIYTASSLLSGVPSRFSGSGSGTDFTLTISGLHPEDFATYFCQQSFSTPPITFGQGTRLDIK
B15: BSPSMA/CD3-900 (bispecific antibody)
chain 1: QVQLVESGGGVVQPGRSLRLSCAASGFTFSSYGMHWVRQAPGKGLEWVAVISYAGNNKYYADSVKGRFTVSRDNSKKTLYLQMNSLRSEDTAVYYCAKDSYYDFLTDPDVLDIWGQGTMVTVSS
chain 2: EVQLVESGGGLVQPGRSLRLSCAASGFTFDDYSMHWVRQAPGKGLEWVSGISWNSGSKGYADSVKGRFTISRDNAKNSLYLQMNSLRAEDTALYYCAKDGSGYGKFYHYGLDVWGQGTTVTVSS
chain 3: DIQMTQSPSSLSASVGDSVTITCRASQSINNYLNWYQQKPGKAPKLLIYTASSLLSGVPSRFSGSGSGTDFTLTISGLHPEDFATYFCQQSFSTPPITFGQGTRLDIK

The results in this text go back to patent publication US20210253701A1 (Regeneron, published 2021).

The target of the first assay is T1, soluble heterodimeric hCD3ε/δ.mFc protein (human).
T1 construct: also called soluble human CD3; human CD3 heterodimeric protein
T1 sequence (P07766 23-126, stated change not applied, chain 1 of 2): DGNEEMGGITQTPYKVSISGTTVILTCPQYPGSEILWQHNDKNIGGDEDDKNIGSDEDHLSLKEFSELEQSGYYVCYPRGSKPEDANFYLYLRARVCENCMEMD
T1 sequence (P04234 22-105, stated change not applied, chain 2 of 2, further chain): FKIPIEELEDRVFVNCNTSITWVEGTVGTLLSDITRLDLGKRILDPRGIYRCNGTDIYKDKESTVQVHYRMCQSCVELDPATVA
Briefly: SPR 37 C, antigen-capture format.
With B1, the dissociation constant (Kd) (as a rule, the constant that tells how readily two partners part at equilibrium) was more than 500 nM.

For the molecule B2, the dissociation constant Kd is more than 500 nM.

A further assay concerns the target T1, soluble heterodimeric hCD3ε/δ.mFc …. The experiment in a line: SPR 37 C, antigen-capture format. The source holds these as a separate data set.
B3 returned a T½ of 10 min.

B4: the T½ came out at 1.8 min.

B5 gave a T½ of 11.3 min.

Consider B6, for which the T½ worked out at 4.9 min.

Molecule B7 returned a T½ of 3.5 min.

In turn, B8 registered a T½ of 2.3 min.

For B9, the T½ turned out to be 4.7 min.

For B10, the T½ came out at 1.9 min.

B11 came in with a T½ of 3.8 min.

Regarding B12, the T½ is 2 min.

In the case of B13, the T½ came out at 4.7 min.

As for B14, the T½ worked out at 4.7 min.

B15 came in with a T½ of 2.3 min.
